Source: publication PMC13186983

How the values were obtained:
[1] = biological target: YA4-mutant 26S proteasome, reconstituted, LD655 acceptor-labeled on Rpt1, biotinylated core (S. cerevisiae | yeast) (UniProt P33299)
[2] = biological target: YA6-mutant 26S proteasome, reconstituted, LD655 acceptor-labeled on Rpt1, biotinylated core (S. cerevisiae | yeast) (UniProt P33299)
[3] = biological target: wild-type 26S proteasome, reconstituted, LD655 acceptor-labeled on Rpt1, biotinylated core (S. cerevisiae | yeast) (UniProt P33299)
[4] = biological target: T1, Rpt3 (ATPase subunit of the yeast 26S proteasome) (S. cerevisiae) (UniProt P33298)
T1 sequence: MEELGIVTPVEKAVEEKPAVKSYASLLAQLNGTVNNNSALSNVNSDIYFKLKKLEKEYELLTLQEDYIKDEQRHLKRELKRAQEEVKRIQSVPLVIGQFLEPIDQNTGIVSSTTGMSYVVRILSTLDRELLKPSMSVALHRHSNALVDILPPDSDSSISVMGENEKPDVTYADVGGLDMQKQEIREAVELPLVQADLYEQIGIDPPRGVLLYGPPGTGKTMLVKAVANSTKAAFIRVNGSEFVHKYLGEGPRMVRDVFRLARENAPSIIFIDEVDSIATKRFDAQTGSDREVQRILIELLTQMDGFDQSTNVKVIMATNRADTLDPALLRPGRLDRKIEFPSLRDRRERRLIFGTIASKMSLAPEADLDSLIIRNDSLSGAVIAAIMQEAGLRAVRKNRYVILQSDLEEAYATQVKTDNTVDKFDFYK

[5] = biological target: YA4-mutant 26S proteasome, reconstituted, LD655 acceptor-labeled on Rpt1, biotinylated core (S. cerevisiae | yeast) (UniProt P33299); remark: listed apart in the source
[6] = biological target: YA6-mutant 26S proteasome, reconstituted, LD655 acceptor-labeled on Rpt1, biotinylated core (S. cerevisiae | yeast) (UniProt P33299); remark: listed apart in the source
[7] = biological target: wild-type 26S proteasome, reconstituted, LD655 acceptor-labeled on Rpt1, biotinylated core (S. cerevisiae | yeast) (UniProt P33299); remark: listed apart in the source
[8] = biological target: T1, Rpt3 (ATPase subunit of the yeast 26S proteasome) (S. cerevisiae); remark: listed apart in the source

“ubiquitinated titin I27^V15P substrate, LD555 donor-labeled (from UniProt P0CG63 1-76)” gave a combined time constant for substrate binding, tail insertion and engagement; bulk stopped-flow FRET, Cy3-labeled proteasome with oPA, 2 µM Cy5-labeled substrate, 25 °C [1] of 14.3 s, a combined time constant for substrate binding, tail insertion and engagement; bulk stopped-flow FRET, Cy3-labeled proteasome with oPA, 2 µM Cy5-labeled substrate, 25 °C [2] of 18 s and a combined time constant for substrate binding, tail insertion and engagement; bulk stopped-flow FRET, Cy3-labeled proteasome with oPA, 2 µM Cy5-labeled substrate, 25 °C [3] of 6.8 s.

For “Rpt6 with the pore-1 loop Tyr to Ala mutation (YA6) (from UniProt Q01939 1-405) (natural protein)”, the basal ATPase rate of the reconstituted YA6 proteasome (NADH-coupled assay) [4] was 101 min⁻¹.

Substance “ubiquitinated titin I27 substrate, LD555 donor-labeled (from UniProt P0CG63 1-76)” has a frequency of terminal release of titin I27 during the unfolding dwell, single-molecule FRET [5] of 37.5%, a frequency of terminal release of titin I27 during the unfolding dwell, single-molecule FRET [6] of 33.3% and a frequency of terminal release of titin I27 during the unfolding dwell, single-molecule FRET [7] of 18.1%.

“Rpt6 E140A (from UniProt Q01939 1-405) (natural protein)” showed a basal ATPase rate of the reconstituted proteasome with Rpt6 E140A (NADH-coupled assay) [8] of 108 min⁻¹.

With “Rpt6 K141A (from UniProt Q01939 1-405) (natural protein)” the basal ATPase rate of the reconstituted proteasome with Rpt6 K141A (NADH-coupled assay) [8] was 87 min⁻¹.
